Measured values: patent US20220332804A1 (CSL INNOVATION, published 2022)

T1: cynomolgus monkey C2 (cynomolgus monkey, UniProt G8F3W0 21-752)
T1 construct: also called cyno C2
T1 sequence: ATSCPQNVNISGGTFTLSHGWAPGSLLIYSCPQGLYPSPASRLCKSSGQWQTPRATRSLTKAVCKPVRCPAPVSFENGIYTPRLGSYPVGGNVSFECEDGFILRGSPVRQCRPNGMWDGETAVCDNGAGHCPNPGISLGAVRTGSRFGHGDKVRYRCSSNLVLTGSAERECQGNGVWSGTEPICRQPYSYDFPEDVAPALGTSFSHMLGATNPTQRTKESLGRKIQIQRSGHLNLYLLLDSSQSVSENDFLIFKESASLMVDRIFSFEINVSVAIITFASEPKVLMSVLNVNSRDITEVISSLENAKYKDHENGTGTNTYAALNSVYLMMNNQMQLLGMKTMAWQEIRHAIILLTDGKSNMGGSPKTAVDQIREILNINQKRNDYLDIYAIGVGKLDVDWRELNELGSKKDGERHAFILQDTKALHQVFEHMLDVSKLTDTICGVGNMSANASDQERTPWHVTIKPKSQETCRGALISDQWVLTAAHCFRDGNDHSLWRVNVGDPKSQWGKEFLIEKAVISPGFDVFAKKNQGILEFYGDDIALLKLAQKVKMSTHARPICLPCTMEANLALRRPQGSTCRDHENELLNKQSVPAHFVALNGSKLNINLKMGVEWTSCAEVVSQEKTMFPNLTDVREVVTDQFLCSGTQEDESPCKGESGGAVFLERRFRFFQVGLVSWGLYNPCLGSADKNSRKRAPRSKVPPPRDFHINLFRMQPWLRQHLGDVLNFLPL

T2: human complement C2 (human, UniProt P06681 21-752)
T2 construct: Recombinant full-length human C2 with C-terminal 8x His tag, purified from Expi293F supernatant; also called human C2; huC2
T2 sequence: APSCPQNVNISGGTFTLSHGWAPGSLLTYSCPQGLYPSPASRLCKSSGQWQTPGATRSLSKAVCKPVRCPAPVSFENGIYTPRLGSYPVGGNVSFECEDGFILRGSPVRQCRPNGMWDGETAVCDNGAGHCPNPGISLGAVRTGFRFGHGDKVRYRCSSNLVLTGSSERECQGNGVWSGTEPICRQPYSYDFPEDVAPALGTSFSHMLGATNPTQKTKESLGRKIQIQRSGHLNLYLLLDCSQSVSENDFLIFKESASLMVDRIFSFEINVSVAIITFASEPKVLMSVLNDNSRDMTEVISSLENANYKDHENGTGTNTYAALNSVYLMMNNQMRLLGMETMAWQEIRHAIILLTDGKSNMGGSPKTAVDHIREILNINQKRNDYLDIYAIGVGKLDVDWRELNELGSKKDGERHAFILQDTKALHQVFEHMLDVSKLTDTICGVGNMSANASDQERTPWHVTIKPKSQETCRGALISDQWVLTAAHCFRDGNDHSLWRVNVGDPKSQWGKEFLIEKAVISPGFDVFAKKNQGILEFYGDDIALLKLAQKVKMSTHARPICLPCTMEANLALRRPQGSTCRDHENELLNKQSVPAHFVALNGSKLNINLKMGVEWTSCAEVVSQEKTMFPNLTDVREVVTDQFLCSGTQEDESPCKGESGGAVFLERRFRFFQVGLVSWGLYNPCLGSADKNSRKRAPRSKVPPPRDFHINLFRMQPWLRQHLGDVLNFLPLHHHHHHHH

T3: mouse C2 (mouse, UniProt P21180 19-760, limits assumed)
T3 sequence (looked up): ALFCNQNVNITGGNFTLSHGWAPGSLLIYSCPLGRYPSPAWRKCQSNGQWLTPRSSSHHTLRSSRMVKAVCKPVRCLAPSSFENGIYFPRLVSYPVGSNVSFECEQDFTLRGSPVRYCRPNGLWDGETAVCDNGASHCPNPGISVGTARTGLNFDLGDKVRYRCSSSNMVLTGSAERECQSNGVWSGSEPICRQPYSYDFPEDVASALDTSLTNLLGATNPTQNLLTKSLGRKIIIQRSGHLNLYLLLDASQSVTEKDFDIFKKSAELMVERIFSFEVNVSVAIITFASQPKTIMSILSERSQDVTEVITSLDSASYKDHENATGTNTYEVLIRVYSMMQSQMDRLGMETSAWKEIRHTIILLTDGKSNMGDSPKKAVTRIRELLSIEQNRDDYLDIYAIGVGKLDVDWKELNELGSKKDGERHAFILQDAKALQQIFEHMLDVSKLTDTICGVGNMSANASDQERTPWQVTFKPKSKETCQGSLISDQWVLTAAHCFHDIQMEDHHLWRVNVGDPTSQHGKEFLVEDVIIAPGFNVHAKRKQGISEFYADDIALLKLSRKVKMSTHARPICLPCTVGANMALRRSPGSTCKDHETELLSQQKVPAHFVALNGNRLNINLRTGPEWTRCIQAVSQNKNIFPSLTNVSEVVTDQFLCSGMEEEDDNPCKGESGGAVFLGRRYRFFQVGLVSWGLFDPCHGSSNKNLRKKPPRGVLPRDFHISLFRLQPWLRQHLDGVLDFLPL

B1: RF16-214 (antibody, V domains shown)
VH: EVQLLESGGGLVQPGGSLRLSCAASGFTFSWYQMMWVRQAPGKGLEWVSRIYPSGGGTAYADSVKGRFTISRDNSKNTLYLQMNSLRAEDTAVYYCARDAGYGDNWGQGTLVTVSS
VL: QSALTQPPSVSVSPGQTASITCSGDKLGEKYASWYQQKAGQSPVMVIYQDRKRPSGIPERFSGSNSGNTATLTISGTQAMDEADYYCQAWDTRAVVFGGGTKLTVLG
B2: RF16-226 (antibody)
heavy: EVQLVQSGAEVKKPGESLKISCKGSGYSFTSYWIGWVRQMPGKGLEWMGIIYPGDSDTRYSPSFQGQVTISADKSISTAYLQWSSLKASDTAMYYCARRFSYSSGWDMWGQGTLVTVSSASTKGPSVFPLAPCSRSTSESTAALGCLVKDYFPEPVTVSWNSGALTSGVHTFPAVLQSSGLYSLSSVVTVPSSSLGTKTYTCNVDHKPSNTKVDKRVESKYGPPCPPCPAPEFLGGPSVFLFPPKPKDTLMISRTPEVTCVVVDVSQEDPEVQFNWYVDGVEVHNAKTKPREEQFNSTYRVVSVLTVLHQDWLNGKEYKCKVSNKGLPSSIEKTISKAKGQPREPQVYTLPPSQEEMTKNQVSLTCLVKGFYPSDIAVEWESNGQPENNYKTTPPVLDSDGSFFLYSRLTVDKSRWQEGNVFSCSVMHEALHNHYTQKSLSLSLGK
light: SYELTQPPSVSVSPGQTARITCSGDALTSKYVAWYQQKSGLAPLLVIYEDTRRPSGIPAKFSGSSSGSVATLTISGAHGDDEADYYCYSTDASGHQRVFGGGTKLTVLSQPKAAPSVTLFPPSSEELQANKATLVCLISDFYPGAVTVAWKADGSPVKAGVETTKPSKQSNNKYAASSYLSLTPEQWKSHRSYSCQVTHEGSTVEKTVAPTECS

Experiments:
cynomolgus monkey C2 [1] = molecular target: T1, cynomolgus monkey C2; experiment: SPR, mAb captured, cyno C2 analyte, pH 6.0
Method: (§1) Surface plasmon resonance (SPR, Biacore) was used for all binding affinity analyses. In brief, goat anti-human IgG was directly immobilised onto the carboxymethyl dextran surface of CM5 sensorchips to approximately 12,000 RU using standard NHS/EDC chemistry at pH 5. The immobilised antibody surface was pre-conditioned with ten injections of polyclonal human IgG (Privigen 60 s) prepared at 1 μg/mL. Ligands (anti-C2 mAbs) were captured at the beginning of each cycle as described below. An adjacent spot or flow cell in which only Polyclonal IgG was capture was used as a reference surface. The goat anti-human IgG Fc antibody surface was regenerate in 100 mM H3PO4, injected for 45 seconds at the end of each cycle. Experiments were performed at 37° C. and the flow rate of each experiment was kept constant at 30 μL/min.
(§2) In addition to human C2, the pH dependent anti-C2 antibodies were also tested for their ability to bind to C2 from other mammalian species using the SPR methods described above in order to identify suitable surrogate species for in vivo testing. The antibodies were tested for binding at neutral pH against C2 from cynomolgus monkeys, mice, dogs, rabbits, rats, pigs, and sheep.

cynomolgus monkey C2 [2] = molecular target: T1, cynomolgus monkey C2; experiment: SPR, mAb captured, cyno C2 analyte, pH 7.3
Method: as §1, §2

cynomolgus monkey C2 [3] = molecular target: T1, cynomolgus monkey C2; experiment: cell-based or functional assay
human complement C2 [4] = molecular target: T2, human complement C2; experiment: SPR, mAb captured, C2 analyte, HBS-EP, pH 6.0
Method: as §1
(§3) The pH dependent anti-C2 antibodies and their germlined versions were tested for their affinity to C2 at pH 7.3 (neutral pH) and pH 6.0 (early endosome pH) using the SPR methods described above in HBS-EP buffer.

mouse C2 = molecular target: T3, mouse C2; experiment: SPR, mAb captured, mouse C2 analyte, pH 7.3
Method: as §1, §2

human complement C2 [5] = molecular target: T2, human complement C2; experiment: cell-based or functional assay
cynomolgus monkey C2 [6] = molecular target: T1, cynomolgus monkey C2; experiment: cell-based or functional assay; remark: listed apart in the source
human complement C2 [7] = molecular target: T2, human complement C2; experiment: SPR, mAb captured, C2 analyte, HBS-EP, pH 7.3
Method: as §1, §3

human complement C2 [8] = molecular target: T2, human complement C2; experiment: SPR, mAb captured, C2 analyte, MHAs buffer, pH 7.3
Method: as §1
(§4) This buffer contains ammonium sulfate instead of sodium chloride.

human complement C2 [9] = molecular target: T2, human complement C2; experiment: SPR, mAb captured, C2 analyte, MHAs buffer, pH 6.0, steady state
Method: as §1, §4

human complement C2 [10] = molecular target: T2, human complement C2; experiment: SPR, mAb captured, C2 analyte, MHAs buffer, pH 5.8, steady state
Method: as §1, §4

Binder	Kd (cynomolgus monkey C2 [1])	Kd (cynomolgus monkey C2 [2])	IC50, inhibition of cynomolgus classical complement pathway (Wieslab assay) (cynomolgus monkey C2 [3])	IC50, inhibition of cynomolgus lectin complement pathway (Wieslab assay) (cynomolgus monkey C2 [3])	Kd (human complement C2 [4])	Kd (mouse C2)	IC50, inhibition of human classical pathway (hemolysis assay) (human complement C2 [5])	IC50, inhibition of cyno classical pathway (hemolysis assay) (cynomolgus monkey C2 [6])	Kd (human complement C2 [7])	Kd (human complement C2 [8])	Kd (human complement C2 [9])	Kd (human complement C2 [10])	IC50, inhibition of cyno classical pathway (hemolysis assay), mean of three experiments (cynomolgus monkey C2 [6])
B1	137 nM	46.8 nM	134 nM	362 nM	148 nM	885 nM	241 nM	630 nM	31 nM	233 nM	2170 nM	4670 nM	
B2	141 nM	5.1 nM	18.8 nM	140 nM	114 nM	160 nM	284 nM		11.6 nM	44 nM	2230 nM	5510 nM	124 nM
